B1: Motile sperm domain-containing protein 2 (Homo sapiens), Q8NHP6 (parent)
chain: MAENHAQNKAKLISETRRRFEAEYVTDKSDKYDARDVERLQQDDNWVESYLSWRHNIVDETLKMLDESFQWRKEISVNDLNESSIPRWLLEIGVIYLHGYDKEGNKLFWIRVKYHVKDQKTILDKKKLIAFWLERYAKRENGKPVTVMFDLSETGINSIDMDFVRFIINCFKVYYPKYLSKIVIFDMPWLMNAAFKIVKTWLGPEAVSLLKFTSKNEVQDYVSVEYLPPHMGGTDPFKYSYPPLVDDDFQTPLCENGPITSEDETSSKEDIESDGKETLETISNEEQTPLLKKINPTESTSKAEENEKVDSKVKAFKKPLSVFKGPLLHISPAEELYFGSTESGEKKTLIVLTNVTKNIVAFKVRTTAPEKYRVKPSNSSCDPGASVDIVVSPHGGLTVSAQDRFLIMAAEMEQSSGTGPAELTQFWKEVPRNKVMEHRLRCHTVESSKPNTLTLKDNAFNMSDKTSEDICLQLSRLLESNRKLEDQVQRCIWFQQLLLSLTMLLLAFVTSFFYLLYS
partner: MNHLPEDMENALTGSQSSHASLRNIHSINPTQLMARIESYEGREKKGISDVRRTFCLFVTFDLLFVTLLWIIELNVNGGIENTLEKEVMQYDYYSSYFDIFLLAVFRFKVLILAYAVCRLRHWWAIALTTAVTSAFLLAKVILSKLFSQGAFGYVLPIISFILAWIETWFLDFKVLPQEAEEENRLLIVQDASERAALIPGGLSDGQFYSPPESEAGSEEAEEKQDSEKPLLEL
B2: Motile sperm domain-containing protein 2 (Homo sapiens), Q8NHP6 (parent)
chain: B1 chain
partner: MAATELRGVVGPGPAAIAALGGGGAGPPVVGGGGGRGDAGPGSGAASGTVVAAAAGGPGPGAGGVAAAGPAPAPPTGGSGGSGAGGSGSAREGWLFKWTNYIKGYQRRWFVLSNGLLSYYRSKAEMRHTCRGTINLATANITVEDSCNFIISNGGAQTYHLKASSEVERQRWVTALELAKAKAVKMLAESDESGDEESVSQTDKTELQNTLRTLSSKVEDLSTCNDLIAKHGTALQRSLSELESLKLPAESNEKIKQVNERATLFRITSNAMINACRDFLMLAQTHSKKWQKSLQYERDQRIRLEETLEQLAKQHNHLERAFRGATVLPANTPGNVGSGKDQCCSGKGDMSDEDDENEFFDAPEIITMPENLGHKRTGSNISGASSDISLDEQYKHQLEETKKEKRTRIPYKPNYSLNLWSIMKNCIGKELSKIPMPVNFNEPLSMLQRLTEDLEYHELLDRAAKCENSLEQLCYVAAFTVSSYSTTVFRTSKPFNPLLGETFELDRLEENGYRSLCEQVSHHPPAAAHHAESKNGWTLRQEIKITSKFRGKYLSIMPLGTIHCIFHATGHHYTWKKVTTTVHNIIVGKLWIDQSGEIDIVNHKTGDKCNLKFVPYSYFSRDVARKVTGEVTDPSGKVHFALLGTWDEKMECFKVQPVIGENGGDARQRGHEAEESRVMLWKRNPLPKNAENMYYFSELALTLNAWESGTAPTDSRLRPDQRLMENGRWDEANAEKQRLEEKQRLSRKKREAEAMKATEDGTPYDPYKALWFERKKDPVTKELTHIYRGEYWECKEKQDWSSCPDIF
B3: Motile sperm domain-containing protein 2 (Homo sapiens), Q8NHP6 (parent)
chain: B1 chain
partner: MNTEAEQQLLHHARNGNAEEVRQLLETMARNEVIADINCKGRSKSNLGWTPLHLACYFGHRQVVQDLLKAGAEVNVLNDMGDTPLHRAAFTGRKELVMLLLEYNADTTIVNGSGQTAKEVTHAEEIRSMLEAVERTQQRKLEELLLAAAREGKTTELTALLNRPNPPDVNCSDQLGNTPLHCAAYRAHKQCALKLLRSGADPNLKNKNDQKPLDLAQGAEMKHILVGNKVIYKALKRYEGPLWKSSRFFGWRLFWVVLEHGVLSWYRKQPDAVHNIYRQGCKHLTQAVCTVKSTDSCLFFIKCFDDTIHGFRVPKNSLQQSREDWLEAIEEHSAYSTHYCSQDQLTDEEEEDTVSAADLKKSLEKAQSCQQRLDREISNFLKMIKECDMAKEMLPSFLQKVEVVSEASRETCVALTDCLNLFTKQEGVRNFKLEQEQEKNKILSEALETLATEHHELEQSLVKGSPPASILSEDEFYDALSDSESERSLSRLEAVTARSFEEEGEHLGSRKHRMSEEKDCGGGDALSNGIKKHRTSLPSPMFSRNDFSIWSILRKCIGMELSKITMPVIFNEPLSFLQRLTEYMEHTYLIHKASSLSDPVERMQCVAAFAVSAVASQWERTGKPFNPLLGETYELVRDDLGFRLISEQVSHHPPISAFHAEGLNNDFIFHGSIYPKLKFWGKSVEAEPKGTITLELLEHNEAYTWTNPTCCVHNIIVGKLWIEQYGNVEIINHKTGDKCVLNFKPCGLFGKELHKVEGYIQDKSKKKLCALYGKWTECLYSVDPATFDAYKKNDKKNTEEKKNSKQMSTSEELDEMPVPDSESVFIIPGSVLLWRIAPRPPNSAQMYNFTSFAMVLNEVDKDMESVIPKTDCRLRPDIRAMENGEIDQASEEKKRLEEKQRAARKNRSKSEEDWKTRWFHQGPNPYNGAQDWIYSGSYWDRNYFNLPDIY
B4: Vesicle-associated membrane protein-associated protein A (Homo sapiens), Q9P0L0 (parent)
chain: MASASGAMAKHEQILVLDPPTDLKFKGPFTDVVTTNLKLRNPSDRKVCFKVKTTAPRRYCVRPNSGIIDPGSTVTVSVMLQPFDYDPNEKSKHKFMVQTIFAPPNTSDMEAVWKEAKPDELMDSKLRCVFEMPNENDKLNDMEPSKAVPLNASKQDGPMPKPHSVSLNDTETRKLMEECKRLQGEMMKLSEENRHLRDEGLRLRKVAHSDKPGSTSTASFRDNVTSPLPSLLVVIAAIFIGFFLGKFIL
partner: B3 partner
B5: StAR-related lipid transfer protein 3 (Homo sapiens), Q14849 (parent)
chain: MSKLPRELTRDLERSLPAVASLGSSLSHSQSLSSHLLPPPEKRRAISDVRRTFCLFVTFDLLFISLLWIIELNTNTGIRKNLEQEIIQYNFKTSFFDIFVLAFFRFSGLLLGYAVLRLRHWWVIAVTTLVSSAFLIVKVILSELLSKGAFGYLLPIVSFVLAWLETWFLDFKVLPQEAEEERWYLAAQVAVARGPLLFSGALSEGQFYSPPESFAGSDNESDEEVAGKKSFSAQEREYIRQGKEATAVVDQILAQEENWKFEKNNEYGDTVYTIEVPFHGKTFILKTFLPCPAELVYQEVILQPERMVLWNKTVTACQILQRVEDNTLISYDVSAGAAGGVVSPRDFVNVRRIERRRDRYLSSGIATSHSAKPPTHKYVRGENGPGGFIVLKSASNPRVCTFVWILNTDLKGRLPRYLIHQSLAATMFEFAFHLRQRISELGARA
partner: B1 chain
B6: Motile sperm domain-containing protein 2 (Homo sapiens), Q8NHP6 (parent)
chain: B1 chain
partner: B5 chain

Variants of: B1
Conditions: with str3n_human STARD3NL

Question: Which “effect of a mutation on the interaction” value does the source give for MAENHAQNKAKLISETRRRFEAEYVTDKSDKYDARDVERLQQDDNWVESYLSWRHNIVDETLKMLDESFQWRKEISVNDLNESSIPRWLLEIGVIYLHGYDKEGNKLFWIRVKYHVKDQKTILDKKKLIAFWLERYAKRENGKPVTVMFDLSETGINSIDMDFVRFIINCFKVYYPKYLSKIVIFDMPWLMNAAFKIVKTWLGPEAVSLLKFTSKNEVQDYVSVEYLPPHMGGTDPFKYSYPPLVDDDFQTPLCENGPITSEDETSSKEDIESDGKETLETISNEEQTPLLKKINPTESTSKAEENEKVDSKVKAFKKPLSVFKGPLLHISPAEELYFGSTESGEKKTLIVLTNVTKNIVAFKVRTTAPEKYRVKPSNSSCDPGASVDIVVSPHGGLTVSAQDDFDIMAAEMEQSSGTGPAELTQFWKEVPRNKVMEHRLRCHTVESSKPNTLTLKDNAFNMSDKTSEDICLQLSRLLESNRKLEDQVQRCIWFQQLLLSLTMLLLAFVTSFFYLLYS [R404D;L406D] here?
Answer: disrupting interaction strength

Variants of: B2
Conditions: with osbp1_human OSBP

Question: How did the “effect of a mutation on the interaction” value turn out when MAENHAQNKAKLISETRRRFEAEYVTDKSDKYDARDVERLQQDDNWVESYLSWRHNIVDETLKMLDESFQWRKEISVNDLNESSIPRWLLEIGVIYLHGYDKEGNKLFWIRVKYHVKDQKTILDKKKLIAFWLERYAKRENGKPVTVMFDLSETGINSIDMDFVRFIINCFKVYYPKYLSKIVIFDMPWLMNAAFKIVKTWLGPEAVSLLKFTSKNEVQDYVSVEYLPPHMGGTDPFKYSYPPLVDDDFQTPLCENGPITSEDETSSKEDIESDGKETLETISNEEQTPLLKKINPTESTSKAEENEKVDSKVKAFKKPLSVFKGPLLHISPAEELYFGSTESGEKKTLIVLTNVTKNIVAFKVRTTAPEKYRVKPSNSSCDPGASVDIVVSPHGGLTVSAQDDFDIMAAEMEQSSGTGPAELTQFWKEVPRNKVMEHRLRCHTVESSKPNTLTLKDNAFNMSDKTSEDICLQLSRLLESNRKLEDQVQRCIWFQQLLLSLTMLLLAFVTSFFYLLYS [R404D;L406D] was run?
Answer: disrupting interaction strength

Variants of: B3
Conditions: with osbl1_human OSBPL1A

Question: Which “effect of a mutation on the interaction” value does the source give for MAENHAQNKAKLISETRRRFEAEYVTDKSDKYDARDVERLQQDDNWVESYLSWRHNIVDETLKMLDESFQWRKEISVNDLNESSIPRWLLEIGVIYLHGYDKEGNKLFWIRVKYHVKDQKTILDKKKLIAFWLERYAKRENGKPVTVMFDLSETGINSIDMDFVRFIINCFKVYYPKYLSKIVIFDMPWLMNAAFKIVKTWLGPEAVSLLKFTSKNEVQDYVSVEYLPPHMGGTDPFKYSYPPLVDDDFQTPLCENGPITSEDETSSKEDIESDGKETLETISNEEQTPLLKKINPTESTSKAEENEKVDSKVKAFKKPLSVFKGPLLHISPAEELYFGSTESGEKKTLIVLTNVTKNIVAFKVRTTAPEKYRVKPSNSSCDPGASVDIVVSPHGGLTVSAQDDFDIMAAEMEQSSGTGPAELTQFWKEVPRNKVMEHRLRCHTVESSKPNTLTLKDNAFNMSDKTSEDICLQLSRLLESNRKLEDQVQRCIWFQQLLLSLTMLLLAFVTSFFYLLYS [R404D;L406D] here?
Answer: disrupting interaction strength

Variants of: B4
Conditions: with osbl1_human OSBPL1A

Question: MASASGAMAKHEQILVLDPPTDLKFKGPFTDVVTTNLKLRNPSDRKVCFKVKTTAPRRYCVRPNSGIIDPGSTVTVSVMLQPFDYDPNEKSKHDFDVQTIFAPPNTSDMEAVWKEAKPDELMDSKLRCVFEMPNENDKLNDMEPSKAVPLNASKQDGPMPKPHSVSLNDTETRKLMEECKRLQGEMMKLSEENRHLRDEGLRLRKVAHSDKPGSTSTASFRDNVTSPLPSLLVVIAAIFIGFFLGKFIL [K94D;M96D] was tested. Which “effect of a mutation on the interaction” value did it give?
Answer: disrupting interaction strength

Variants of: B5
Conditions: with mspd2_human MOSPD2, Q8NHP6

Question: MSKLPRELTRDLERSLPAVASLGSSLSHSQSLSSHLLPPPEKRRAISDVRRTFCLFVTFDLLFISLLWIIELNTNTGIRKNLEQEIIQYNFKTSFFDIFVLAFFRFSGLLLGYAVLRLRHWWVIAVTTLVSSAFLIVKVILSELLSKGAFGYLLPIVSFVLAWLETWFLDFKVLPQEAEEERWYLAAQVAVARGPLLFSGALSEGQAASPPESFAGSDNESDEEVAGKKSFSAQEREYIRQGKEATAVVDQILAQEENWKFEKNNEYGDTVYTIEVPFHGKTFILKTFLPCPAELVYQEVILQPERMVLWNKTVTACQILQRVEDNTLISYDVSAGAAGGVVSPRDFVNVRRIERRRDRYLSSGIATSHSAKPPTHKYVRGENGPGGFIVLKSASNPRVCTFVWILNTDLKGRLPRYLIHQSLAATMFEFAFHLRQRISELGARA [F207A;Y208A] was tested. Which “effect of a mutation on the interaction” value did it give?
Answer: disrupting interaction strength

Variants of: B6
Conditions: with star3_human STARD3, Q14849

Question: For MAENHAQNKAKLISETRRRFEAEYVTDKSDKYDARDVERLQQDDNWVESYLSWRHNIVDETLKMLDESFQWRKEISVNDLNESSIPRWLLEIGVIYLHGYDKEGNKLFWIRVKYHVKDQKTILDKKKLIAFWLERYAKRENGKPVTVMFDLSETGINSIDMDFVRFIINCFKVYYPKYLSKIVIFDMPWLMNAAFKIVKTWLGPEAVSLLKFTSKNEVQDYVSVEYLPPHMGGTDPFKYSYPPLVDDDFQTPLCENGPITSEDETSSKEDIESDGKETLETISNEEQTPLLKKINPTESTSKAEENEKVDSKVKAFKKPLSVFKGPLLHISPAEELYFGSTESGEKKTLIVLTNVTKNIVAFKVRTTAPEKYRVKPSNSSCDPGASVDIVVSPHGGLTVSAQDDFDIMAAEMEQSSGTGPAELTQFWKEVPRNKVMEHRLRCHTVESSKPNTLTLKDNAFNMSDKTSEDICLQLSRLLESNRKLEDQVQRCIWFQQLLLSLTMLLLAFVTSFFYLLYS [R404D;L406D], which “effect of a mutation on the interaction” value is on record?
Answer: disrupting interaction strength

Reference: IntAct's records for PubMed 29858488
